Reference: patent publication US20080044360A1 (COLLAGEN MEDICAL, published 2008)
Bridge positions count the residues as written; N and C are the ends. Square brackets hold non-standard residues; d marks the D form. Primed or numbered codes have the meaning given here. Side chains are listed from the residue outwards. Ends that are not written are not given here. * marks the point of attachment. Gd^D = GdDOTAGA (gadolinium DOTAGA chelate); Tyr(3-Cl) = N[C@@H](Cc1ccc(O)c(Cl)c1)C(=O)O; Tyr(3-I) = N[C@@H](Cc1ccc(O)c(I)c1)C(=O)O; Phe(3-OMe) = COc1cccc(C[C@H](N)C(=O)O)c1; Phe(4-NH2) = Nc1ccc(C[C@H](N)C(=O)O)cc1; Dmt = Cc1cc(O)cc(C)c1C[C@H](N)C(=O)O; 1,4 AMB(Gd^T) = not defined here; NMeA = CN[C@@H](C)C(=O)O; Gd^G = not defined here; Gd^T″ = GdDTPA-thiourea; NH(CH2)6NH2 = NCCCCCCN*; AEEA = NCCOCCOCC(=O)O

What was measured:
[1] = target: T1, rat collagen, acid soluble, type I, rat tail (Upstate 08-115) (rat, UniProt P02454 152-1207; P02466 86-1125); assay: dried collagen assay
T1 construct: tissue extract, gelled and dried in wells; also called dried rat collagen
T1 sequence (P02454 152-1207, chain 1 of 2): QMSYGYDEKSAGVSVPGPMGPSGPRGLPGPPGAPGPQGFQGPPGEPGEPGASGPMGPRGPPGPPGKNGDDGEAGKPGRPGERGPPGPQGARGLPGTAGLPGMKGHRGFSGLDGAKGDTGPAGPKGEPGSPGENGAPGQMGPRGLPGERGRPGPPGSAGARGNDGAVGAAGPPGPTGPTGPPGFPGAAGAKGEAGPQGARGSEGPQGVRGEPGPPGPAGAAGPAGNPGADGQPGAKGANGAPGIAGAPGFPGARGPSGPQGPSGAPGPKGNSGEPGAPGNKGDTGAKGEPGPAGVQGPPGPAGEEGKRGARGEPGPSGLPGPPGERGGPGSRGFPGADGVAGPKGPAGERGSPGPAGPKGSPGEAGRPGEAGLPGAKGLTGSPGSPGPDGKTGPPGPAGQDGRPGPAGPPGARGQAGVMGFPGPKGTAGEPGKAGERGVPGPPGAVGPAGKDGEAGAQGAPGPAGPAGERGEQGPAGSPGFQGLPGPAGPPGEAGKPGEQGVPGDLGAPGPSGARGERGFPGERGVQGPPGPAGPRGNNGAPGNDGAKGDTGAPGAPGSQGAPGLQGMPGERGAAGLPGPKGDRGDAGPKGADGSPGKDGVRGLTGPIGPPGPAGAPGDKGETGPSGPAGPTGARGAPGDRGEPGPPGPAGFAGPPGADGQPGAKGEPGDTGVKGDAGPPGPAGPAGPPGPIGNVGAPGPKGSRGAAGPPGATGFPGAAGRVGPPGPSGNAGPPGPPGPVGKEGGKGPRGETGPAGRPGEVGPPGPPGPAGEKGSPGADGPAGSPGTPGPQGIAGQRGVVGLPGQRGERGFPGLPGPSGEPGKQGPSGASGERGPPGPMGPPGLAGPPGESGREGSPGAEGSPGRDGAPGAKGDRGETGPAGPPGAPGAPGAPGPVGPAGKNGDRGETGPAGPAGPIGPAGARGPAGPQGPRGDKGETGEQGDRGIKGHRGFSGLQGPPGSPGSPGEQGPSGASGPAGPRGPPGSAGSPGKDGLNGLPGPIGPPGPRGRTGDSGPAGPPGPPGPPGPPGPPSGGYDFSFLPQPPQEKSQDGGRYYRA
T1 sequence (P02466 86-1125, chain 2 of 2): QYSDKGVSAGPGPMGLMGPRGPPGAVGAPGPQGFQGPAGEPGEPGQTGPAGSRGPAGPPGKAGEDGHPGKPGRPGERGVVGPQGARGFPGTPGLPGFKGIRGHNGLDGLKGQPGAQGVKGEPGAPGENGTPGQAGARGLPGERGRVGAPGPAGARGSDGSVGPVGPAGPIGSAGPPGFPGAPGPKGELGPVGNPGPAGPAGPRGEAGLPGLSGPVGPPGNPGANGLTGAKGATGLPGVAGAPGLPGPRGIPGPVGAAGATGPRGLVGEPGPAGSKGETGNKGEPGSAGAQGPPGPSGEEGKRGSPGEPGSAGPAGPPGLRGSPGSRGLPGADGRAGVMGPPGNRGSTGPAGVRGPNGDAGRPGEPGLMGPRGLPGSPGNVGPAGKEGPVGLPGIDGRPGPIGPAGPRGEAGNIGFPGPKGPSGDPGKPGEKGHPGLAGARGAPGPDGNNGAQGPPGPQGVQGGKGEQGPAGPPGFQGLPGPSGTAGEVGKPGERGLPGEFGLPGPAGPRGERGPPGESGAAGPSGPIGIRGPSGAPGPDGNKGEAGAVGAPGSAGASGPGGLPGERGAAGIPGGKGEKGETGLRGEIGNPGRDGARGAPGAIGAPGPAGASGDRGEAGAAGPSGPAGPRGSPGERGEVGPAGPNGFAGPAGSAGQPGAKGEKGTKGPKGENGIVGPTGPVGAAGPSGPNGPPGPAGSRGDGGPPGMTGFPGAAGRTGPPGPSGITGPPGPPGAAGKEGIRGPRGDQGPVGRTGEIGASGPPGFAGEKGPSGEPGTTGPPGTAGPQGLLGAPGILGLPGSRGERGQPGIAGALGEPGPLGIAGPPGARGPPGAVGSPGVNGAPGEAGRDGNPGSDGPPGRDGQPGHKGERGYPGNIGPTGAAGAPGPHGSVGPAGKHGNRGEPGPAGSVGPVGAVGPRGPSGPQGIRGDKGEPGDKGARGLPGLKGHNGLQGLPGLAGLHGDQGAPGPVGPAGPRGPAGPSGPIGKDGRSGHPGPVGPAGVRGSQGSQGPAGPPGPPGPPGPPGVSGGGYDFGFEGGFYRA

[2] = target: T2, human collagen type I, acid soluble, extracted from placenta (Sigma C7774) (human, UniProt P02452 162-1218; P08123 80-1119); assay: dried collagen assay
T2 construct: tissue extract, gelled and dried in wells; also called dried human collagen; h-Collagen
T2 sequence (P02452 162-1218 limits assumed, chain 1 of 2): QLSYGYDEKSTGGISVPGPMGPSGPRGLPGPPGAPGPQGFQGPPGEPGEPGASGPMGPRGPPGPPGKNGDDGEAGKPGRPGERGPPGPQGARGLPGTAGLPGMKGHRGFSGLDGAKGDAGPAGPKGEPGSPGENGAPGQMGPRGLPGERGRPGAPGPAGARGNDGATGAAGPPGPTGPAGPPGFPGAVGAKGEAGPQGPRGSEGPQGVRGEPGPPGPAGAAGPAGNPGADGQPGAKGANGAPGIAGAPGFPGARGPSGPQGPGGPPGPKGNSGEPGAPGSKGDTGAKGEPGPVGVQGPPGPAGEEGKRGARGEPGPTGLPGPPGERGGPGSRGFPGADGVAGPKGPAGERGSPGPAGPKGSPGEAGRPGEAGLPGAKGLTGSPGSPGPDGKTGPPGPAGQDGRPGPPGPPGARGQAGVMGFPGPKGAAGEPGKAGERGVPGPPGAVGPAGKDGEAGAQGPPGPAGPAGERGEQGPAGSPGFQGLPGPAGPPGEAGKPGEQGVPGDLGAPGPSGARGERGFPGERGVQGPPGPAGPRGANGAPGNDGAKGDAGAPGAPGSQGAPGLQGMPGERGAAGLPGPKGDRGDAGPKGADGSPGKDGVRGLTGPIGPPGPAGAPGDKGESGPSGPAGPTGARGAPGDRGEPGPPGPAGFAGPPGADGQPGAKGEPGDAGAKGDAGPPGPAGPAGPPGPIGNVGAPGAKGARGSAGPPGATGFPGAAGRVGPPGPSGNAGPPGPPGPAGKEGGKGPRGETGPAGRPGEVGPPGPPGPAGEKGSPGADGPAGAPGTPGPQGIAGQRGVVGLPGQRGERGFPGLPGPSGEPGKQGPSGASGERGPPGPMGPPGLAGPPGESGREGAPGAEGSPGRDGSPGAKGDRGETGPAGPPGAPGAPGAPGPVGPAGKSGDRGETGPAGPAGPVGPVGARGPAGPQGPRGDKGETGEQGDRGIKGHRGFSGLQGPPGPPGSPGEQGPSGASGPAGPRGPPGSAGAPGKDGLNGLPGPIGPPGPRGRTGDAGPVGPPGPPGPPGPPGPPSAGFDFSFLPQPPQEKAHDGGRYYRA
T2 sequence (P08123 80-1119 limits assumed, chain 2 of 2): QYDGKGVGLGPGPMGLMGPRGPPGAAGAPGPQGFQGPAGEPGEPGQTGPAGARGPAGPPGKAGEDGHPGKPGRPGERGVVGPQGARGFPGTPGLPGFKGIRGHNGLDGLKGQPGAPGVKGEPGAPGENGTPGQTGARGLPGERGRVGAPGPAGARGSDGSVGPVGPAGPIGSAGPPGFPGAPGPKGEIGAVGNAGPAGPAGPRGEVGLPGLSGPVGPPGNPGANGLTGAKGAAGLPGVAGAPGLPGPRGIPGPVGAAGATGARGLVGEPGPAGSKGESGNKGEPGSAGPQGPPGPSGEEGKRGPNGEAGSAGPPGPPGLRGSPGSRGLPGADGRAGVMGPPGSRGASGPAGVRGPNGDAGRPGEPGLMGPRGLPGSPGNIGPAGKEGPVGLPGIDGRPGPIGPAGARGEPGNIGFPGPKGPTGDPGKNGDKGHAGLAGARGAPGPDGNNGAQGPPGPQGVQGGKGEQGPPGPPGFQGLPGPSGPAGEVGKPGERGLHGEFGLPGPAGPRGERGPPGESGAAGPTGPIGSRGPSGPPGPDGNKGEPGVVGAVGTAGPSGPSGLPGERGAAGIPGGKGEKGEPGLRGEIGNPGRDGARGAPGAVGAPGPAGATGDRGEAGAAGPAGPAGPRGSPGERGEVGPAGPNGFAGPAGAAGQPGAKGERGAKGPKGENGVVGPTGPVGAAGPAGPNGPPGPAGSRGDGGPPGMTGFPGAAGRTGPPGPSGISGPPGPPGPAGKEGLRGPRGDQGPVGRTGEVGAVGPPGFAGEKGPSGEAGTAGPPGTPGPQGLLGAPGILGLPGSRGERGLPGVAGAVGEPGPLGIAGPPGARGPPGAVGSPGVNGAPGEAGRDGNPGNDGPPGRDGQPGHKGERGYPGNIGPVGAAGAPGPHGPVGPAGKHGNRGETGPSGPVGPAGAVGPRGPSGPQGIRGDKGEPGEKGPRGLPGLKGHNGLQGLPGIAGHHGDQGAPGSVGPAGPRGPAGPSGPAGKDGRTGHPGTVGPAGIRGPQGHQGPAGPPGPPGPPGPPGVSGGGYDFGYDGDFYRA

Binder | % bound [1] [%] | % bound [2] [%]
{Gd^T″}-GQWHCTTRFPHH[Phe(3-OMe)]CLYG (disulfide 5-14 (inferred)) [Compound ID 935] | 39 | 59
{Gd^T″}-GK([Gly-Gd^T″])WHCTTYFPHWYCLYG (disulfide 5-14 (inferred)) [Compound ID 948] | 17 | 25
{Gd^T″}-GQWK(Gd^T″)CTTRFPHHYCLYG (disulfide 5-14 (inferred)) [Compound ID 956] | 15 | 39
{Gd^T″}-GK([Gly-Gd^T″])WHCTTYFPHYYCLYG (disulfide 5-14 (inferred)) [Compound ID 947] | 57 | 64
{Gd^T″}-GK([Gly-Gd^T″])WHCTTYFPHHYCL[Phe(4-NH2)](Gd^T″)G (disulfide 5-14 (inferred); not fully specified (C-terminus)) [Compound ID 971] | 25 | 21
{Gd^T″}-GK([Gly-Gd^T″])WYCTTYFPHHYCLYG (disulfide 5-14 (inferred); not fully specified (C-terminus)) [Compound ID 990] | 62 | 59
{Gd^T″}-GK([Gly-Gd^T″])WHCYK(Gd^T″)YFPHHYCLYG (disulfide 5-14 (inferred); not fully specified (C-terminus)) [Compound ID 991] | 11 | 23
{Gd^T″}-GQWHCTTRFPHHYCLYG (disulfide 5-14 (inferred); not fully specified (C-terminus)) [Compound ID 954] | 22 | 31
{Gd^T″}-GK([Gly-Gd^T″])WHCYTYFPHHYCVYY (disulfide 5-14 (inferred)) [Compound ID 945] | 82 | 83
{Gd^T″}-GK([Gly-Gd^T″])WHCYTYFPHHYCVYG-{AEEA-Gd^T″} (disulfide 5-14 (inferred)) [Compound ID 998] | 75 | 71
{Gd^T″}-GK([Gly-Gd^T″])WHCTTYFPHHVCLYG (disulfide 5-14 (inferred)) [Compound ID 965] | 11 | 26
{Gd^T″}-GK([Gly-Gd^T″])WHCYTYFPHHYCVYG (disulfide 5-14 (inferred)) [Compound ID 944] | 84 | 91
{Gd^D}-K(Gd^D)K(Gd^D)WHCYTYFPHHYCVYG (disulfide 5-14 (inferred)) [Compound ID 1014] | 61 | 72
{Gd^T″}-GQWHCTTRF[NMeA]HHYCLYG (disulfide 5-14 (inferred)) [Compound ID 938] | 13 | 16
{Gd^T″}-GK([Gly-Gd^T″])WHCYTK(Gd^T″)FPHHYCVYY (disulfide 5-14 (inferred); not fully specified (C-terminus)) [Compound ID 979] | 86 | 87
{Gd^T″}-GK([Gly-Gd^T″])WHCYTK(Gd^T″)FPYHYCVYY (disulfide 5-14 (inferred)) [Compound ID 1011] | 93 | 94
{Gd^T″}-GK([Gly-Gd^T″])WHC[Tyr(3-I)]TYFPHHYCLYG (disulfide 5-14 (inferred); not fully specified (C-terminus)) [Compound ID 973] | 92 | 85
{Gd^T″}-GQWHCTTRFPK(Gd^T″)HYCLYG (disulfide 5-14 (inferred)) [Compound ID 958] | 33 | 45
{Gd^T″}-GK([Gly-Gd^T″])WHCYTYFPYHYCVYG (disulfide 5-14 (inferred)) [Compound ID 963] | 91 | 82

Binder | % bound [1] [%] | % bound [2] [%]
{Gd^T″}-GK([Gly-Gd^T″])WHCTTYFPHH[Dmt]CLYG (disulfide 5-14 (inferred)) [Compound ID 953] | 50 | 50
{Gd^T″}-GK([Gly-Gd^T″])WHCTTYFPHH[Tyr(3-Cl)]CLYG (disulfide 5-14 (inferred)) [Compound ID 952] | 72 | 52
{Gd^T″}-GK([Gly-Gd^T″])WHCTTYFPYHYCLYG (disulfide 5-14 (inferred)) [Compound ID 946] | 68 | 71
{Gd^T″}-GK([Gly-Gd^T″])WHCYTYFPHHYCVYG-{NH(CH2)6NH2-Gd^T″} (disulfide 5-14 (inferred)) [Compound ID 999] | 66 | 65
{Gd^T″}-GK([Gly-Gd^T″])WHCYTYFPHHYCLYG (disulfide 5-14 (inferred)) [Compound ID 943] | 72 | 55
{Gd^T″}-GK([Gly-Gd^T″])WHCYTK(Gd^T″)FPHHYCK(Gd^T″)YY (disulfide 5-14 (inferred)) [Compound ID 1013] | 88 | 81
{Gd^T″}-GK([Gly-Gd^T″])WHCTTK(Gd^T″)FPHHYCLYY (disulfide 5-14 (inferred); not fully specified (C-terminus)) [Compound ID 980] | 80 | 85
{Gd^T″}-GQWHCYTLFPHHYCLYG (disulfide 5-14 (inferred)) [Compound ID 959] | 68 | 58
{Gd^T″}-GK([Gly-Gd^T″])WHCTTYFPTHYCLYG (disulfide 5-14 (inferred)) [Compound ID 962] | 10 | 20
{Gd^T″}-GK([Gly-Gd^T″])WHCTTYFPHHYCVYG (disulfide 5-14 (inferred)) [Compound ID 942] | 67 | 78
{Gd^T″}-GK([Gly-Gd^T″])WHCTTYFPHHYCL[Phe(4-NH2)]G (disulfide 5-14 (inferred); not fully specified (C-terminus)) [Compound ID 970] | 54 | 53
{Gd^T″}-GQWHCK(Gd^T″)TRFPHHYCLYG (disulfide 5-14 (inferred)) [Compound ID 957] | 39 | 42
{Gd^T″}-GK([Gly-Gd^T″])WHCYTYFPHHYCVYG-{1,4 AMB(Gd^T)} (disulfide 5-14 (inferred); reading uncertain) [Compound ID 1000] | 68 | 75
{Gd^T″}-GK([Gly-Gd^T″])WHCTTYFPHH[Phe(4-NH2)]CLYG (disulfide 5-14 (inferred); not fully specified (C-terminus)) [Compound ID 972] | 0 | 3
{Gd^T″}-GK([Gly-Gd^T″])WHCTTYFPHHYCLYY (disulfide 5-14 (inferred)) [Compound ID 949] | 79 | 72
{Gd^T″}-GK([Gly-Gd^T″])WHCYTK(Gd^T″)FPHHYCVYG (disulfide 5-14 (inferred); not fully specified (C-terminus)) [Compound ID 978] | 66 | 64
{Gd^T″}-GK([Gly-Gd^T″])WHCYTYFPYHYCLYG (disulfide 5-14 (inferred)) [Compound ID 964] | 86 | 88
{Gd^G}-GQWTCSGDAYTWHCAYE (disulfide 5-14 (inferred); not fully specified (C-terminus); reading uncertain) [Compound ID 820] | 29 | 60
{Gd^T″}-GAWTCSGDEYTWHCNYE (disulfide 5-14 (inferred); not fully specified (C-terminus)) [Compound ID 830] | 11 | 26
